We go through 94 variants from the supplement of paper PMC10567573.

B1: ZNF511 (parent)
chain: FDALDDYEHHYHTLHGNVCSFCKR
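Also: lentivirally expressed fusions sorted by FACS into six bins by GFP to DsRed ratio, PSI derived from sequencing read proportions per bin multiplied by bin number.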

Variants of B1 are the subject of the data set. Briefly: protein stability index of a GFP-peptide fusion (GPS, HEK-293T) (PSI 1-6); higher = more stable. Conditions: c terminus: a fixed tail appended.
For FDALDDMEHHYHTLHGNVCSFCKR [Y7M], the protein stability index is 4.29.

FDALDDIEHHYHTLHGNVCSFCKR [Y7I]: the protein stability index came to 4.18.

Consider FDALDDKEHHYHTLHGNVCSFCKR [Y7K], for which the protein stability index amounted to 4.44.

On to FDALDDFEHHYHTLHGNVCSFCKR [Y7F], for which the protein stability index stood at 3.24.

For the variant FDALDDLEHHYHTLHGNVCSFCKR [Y7L], the protein stability index came out at 3.54.

Regarding FDALDDDEHHYHTLHGNVCSFCKR [Y7D], the protein stability index worked out at 4.22.

Turning to FDALDDGEHHYHTLHGNVCSFCKR [Y7G], the protein stability index stood at 4.16.

As for FDALDDEEHHYHTLHGNVCSFCKR [Y7E], the protein stability index was found to be 4.31.

For FDALDDREHHYHTLHGNVCSFCKR [Y7R], the protein stability index was determined as 4.23.

For FDALDDAEHHYHTLHGNVCSFCKR [Y7A], the protein stability index turned out to be 3.4.

In the case of FDALDDNEHHYHTLHGNVCSFCKR [Y7N], the protein stability index amounted to 4.25.

As to FDALDDHEHHYHTLHGNVCSFCKR [Y7H], the protein stability index was determined as 4.43.

For FDALDDQEHHYHTLHGNVCSFCKR [Y7Q], the protein stability index is 4.25.

FDALDDCEHHYHTLHGNVCSFCKR [Y7C]: the protein stability index worked out at 4.92.

FDALDDPEHHYHTLHGNVCSFCKR [Y7P]: the protein stability index worked out at 3.97.

Turning to FDAVDDYEHHYHTLHGNVCSFCKR [L4V], the protein stability index came out at 3.75.

Regarding FDAFDDYEHHYHTLHGNVCSFCKR [L4F], the protein stability index was found to be 4.

Take FDAEDDYEHHYHTLHGNVCSFCKR [L4E]: the protein stability index amounted to 4.41.

With FDAIDDYEHHYHTLHGNVCSFCKR [L4I], the protein stability index turned out to be 3.56.

With FDANDDYEHHYHTLHGNVCSFCKR [L4N], the protein stability index was 4.51.

FDAGDDYEHHYHTLHGNVCSFCKR [L4G]: the protein stability index came out at 4.11.

With FDAPDDYEHHYHTLHGNVCSFCKR [L4P], the protein stability index worked out at 3.54.

As for FDAHDDYEHHYHTLHGNVCSFCKR [L4H], the protein stability index is 4.48.

In the case of FDATDDYEHHYHTLHGNVCSFCKR [L4T], the protein stability index worked out at 4.44.

Turning to FDARDDYEHHYHTLHGNVCSFCKR [L4R], the protein stability index is 3.93.

Regarding FDAMDDYEHHYHTLHGNVCSFCKR [L4M], the protein stability index is 3.81.

Consider FDAADDYEHHYHTLHGNVCSFCKR [L4A], for which the protein stability index came to 4.1.

On to FDAKDDYEHHYHTLHGNVCSFCKR [L4K], for which the protein stability index stood at 4.39.

For FDAQDDYEHHYHTLHGNVCSFCKR [L4Q], the protein stability index was found to be 4.18.

Consider FDACDDYEHHYHTLHGNVCSFCKR [L4C], for which the protein stability index stood at 3.94.

As for FDADDDYEHHYHTLHGNVCSFCKR [L4D], the protein stability index amounted to 4.2.

Take FDAYDDYEHHYHTLHGNVCSFCKR [L4Y]: the protein stability index stood at 3.16.

As to FDAWDDYEHHYHTLHGNVCSFCKR [L4W], the protein stability index was 3.43.

For FDASDDYEHHYHTLHGNVCSFCKR [L4S], the protein stability index came to 4.6.

Take FVALDDYEHHYHTLHGNVCSFCKR [D2V]: the protein stability index stood at 2.06.

As for FWALDDYEHHYHTLHGNVCSFCKR [D2W], the protein stability index was 2.3.

Take FYALDDYEHHYHTLHGNVCSFCKR [D2Y]: the protein stability index turned out to be 3.1.

Turning to FDALPDYEHHYHTLHGNVCSFCKR [D5P], the protein stability index was 4.11.

Turning to FDALYDYEHHYHTLHGNVCSFCKR [D5Y], the protein stability index was 3.1.

Consider FDALHDYEHHYHTLHGNVCSFCKR [D5H], for which the protein stability index was determined as 3.9.

On to FDALGDYEHHYHTLHGNVCSFCKR [D5G], for which the protein stability index turned out to be 4.12.

FDALFDYEHHYHTLHGNVCSFCKR [D5F]: the protein stability index was determined as 2.5.

For FDALWDYEHHYHTLHGNVCSFCKR [D5W], the protein stability index worked out at 2.98.

In the case of FDALIDYEHHYHTLHGNVCSFCKR [D5I], the protein stability index was found to be 3.45.

Take FDALNDYEHHYHTLHGNVCSFCKR [D5N]: the protein stability index was 3.98.

For FDALKDYEHHYHTLHGNVCSFCKR [D5K], the protein stability index was found to be 3.09.

On to FDALEDYEHHYHTLHGNVCSFCKR [D5E], for which the protein stability index is 3.77.

Regarding FDALRDYEHHYHTLHGNVCSFCKR [D5R], the protein stability index is 3.5.

With FDALCDYEHHYHTLHGNVCSFCKR [D5C], the protein stability index worked out at 4.

As to FDALVDYEHHYHTLHGNVCSFCKR [D5V], the protein stability index came out at 3.54.

For FDALADYEHHYHTLHGNVCSFCKR [D5A], the protein stability index was 4.03.

Turning to FDALMDYEHHYHTLHGNVCSFCKR [D5M], the protein stability index worked out at 3.14.

With FDALLDYEHHYHTLHGNVCSFCKR [D5L], the protein stability index was 3.18.

FDALQDYEHHYHTLHGNVCSFCKR [D5Q]: the protein stability index was determined as 3.86.

Regarding FDALSDYEHHYHTLHGNVCSFCKR [D5S], the protein stability index came out at 3.24.

For FDALTDYEHHYHTLHGNVCSFCKR [D5T], the protein stability index was 3.7.

Turning to FDALDHYEHHYHTLHGNVCSFCKR [D6H], the protein stability index is 3.96.

As to FDALDNYEHHYHTLHGNVCSFCKR [D6N], the protein stability index is 3.91.

FDALDCYEHHYHTLHGNVCSFCKR [D6C]: the protein stability index turned out to be 4.28.

On to FDALDYYEHHYHTLHGNVCSFCKR [D6Y], for which the protein stability index amounted to 2.59.

Consider FDALDKYEHHYHTLHGNVCSFCKR [D6K], for which the protein stability index was 2.97.

Turning to FDALDLYEHHYHTLHGNVCSFCKR [D6L], the protein stability index was determined as 4.68.

In the case of FDALDMYEHHYHTLHGNVCSFCKR [D6M], the protein stability index was determined as 3.03.

Take FDALDTYEHHYHTLHGNVCSFCKR [D6T]: the protein stability index turned out to be 3.27.

With FDALDEYEHHYHTLHGNVCSFCKR [D6E], the protein stability index stood at 3.43.

Take FDALDFYEHHYHTLHGNVCSFCKR [D6F]: the protein stability index was found to be 2.21.

On to FDALDSYEHHYHTLHGNVCSFCKR [D6S], for which the protein stability index came to 3.95.

Regarding FDALDAYEHHYHTLHGNVCSFCKR [D6A], the protein stability index was found to be 3.54.

As to FDALDGYEHHYHTLHGNVCSFCKR [D6G], the protein stability index came to 3.69.

For the variant FDALDQYEHHYHTLHGNVCSFCKR [D6Q], the protein stability index worked out at 3.56.

As to FDALDPYEHHYHTLHGNVCSFCKR [D6P], the protein stability index came out at 3.74.

Turning to FDALDVYEHHYHTLHGNVCSFCKR [D6V], the protein stability index was 2.98.

FDALDIYEHHYHTLHGNVCSFCKR [D6I]: the protein stability index stood at 3.51.

Turning to FDALDRYEHHYHTLHGNVCSFCKR [D6R], the protein stability index turned out to be 3.52.

Take FDALDWYEHHYHTLHGNVCSFCKR [D6W]: the protein stability index amounted to 1.67.

Turning to FDPLDDYEHHYHTLHGNVCSFCKR [A3P], the protein stability index came out at 3.7.

FDSLDDYEHHYHTLHGNVCSFCKR [A3S]: the protein stability index amounted to 3.77.

FDTLDDYEHHYHTLHGNVCSFCKR [A3T]: the protein stability index came out at 3.56.

Consider FDDLDDYEHHYHTLHGNVCSFCKR [A3D], for which the protein stability index turned out to be 3.72.

On to FDNLDDYEHHYHTLHGNVCSFCKR [A3N], for which the protein stability index was found to be 3.63.

As for FDHLDDYEHHYHTLHGNVCSFCKR [A3H], the protein stability index is 3.63.

As to FDELDDYEHHYHTLHGNVCSFCKR [A3E], the protein stability index was determined as 4.08.

With FDYLDDYEHHYHTLHGNVCSFCKR [A3Y], the protein stability index was determined as 3.54.

As to FDWLDDYEHHYHTLHGNVCSFCKR [A3W], the protein stability index came to 2.87.

FDMLDDYEHHYHTLHGNVCSFCKR [A3M]: the protein stability index amounted to 3.56.

FDKLDDYEHHYHTLHGNVCSFCKR [A3K]: the protein stability index amounted to 2.87.

FDCLDDYEHHYHTLHGNVCSFCKR [A3C]: the protein stability index was 4.06.

Take FDFLDDYEHHYHTLHGNVCSFCKR [A3F]: the protein stability index is 3.19.

For FDQLDDYEHHYHTLHGNVCSFCKR [A3Q], the protein stability index is 4.04.

For the variant FDILDDYEHHYHTLHGNVCSFCKR [A3I], the protein stability index was found to be 3.31.

As to FDGLDDYEHHYHTLHGNVCSFCKR [A3G], the protein stability index worked out at 3.96.

As to FDRLDDYEHHYHTLHGNVCSFCKR [A3R], the protein stability index is 3.81.

With FDLLDDYEHHYHTLHGNVCSFCKR [A3L], the protein stability index stood at 3.69.

FDVLDDYEHHYHTLHGNVCSFCKR [A3V]: the protein stability index came to 3.59.
